Assays:
[1] = biological target: FLAG-tagged HPV51 chimera 5 L2 (Ch5L2-FLAG) (human papillomavirus type 51, Ma strain | human papillomavirus type 51, Nu strain) (UniProt P26539)
[2] = biological target: FLAG-tagged HPV51 chimera 4 L2 (Ch4L2-FLAG) (human papillomavirus type 51, Ma strain | human papillomavirus type 51, Nu strain) (UniProt P26539)

transport protein particle complex subunit 8 (TRAPPC8) (from UniProt Q9Y2L5 1-1435) (natural protein)
percent of HeLa cells GFP-positive by flow cytometry after inoculation with HPV51 PsV containing the (untagged) Ch5L2 and a GFP-expression plasmid [1]: 80%
percent of HeLa cells GFP-positive by flow cytometry after inoculation with HPV51 PsV containing the (untagged) Ch4L2 and a GFP-expression plasmid [2]: 4%
